# Measured values published in patent US20080063623A1 (INTEVERT INTERNATIONAL B V, published 2008).
# Target: the molecule itself
# Test: transfection of COS-7 cells, non-denaturing Western blot of supernatants
# Protocol: COS-7 cells were transfected with 1.5 μg of each cDNA construct using the Invitrogen Life Technologies Lipofectamine™ reagent (as described by the manufacturer) and cultured in 3-cm dishes with DMEM (without FCS and penicillin/streptomycin). After 8 h, transfected cells were washed and cultured in DMEM with penicillin/streptomycin and 10% FCS. After 72 h incubation at 37° C./5% C0₂ the cell culture supernatants were harvested and centrifuged at 13,000 rpm for 10 min at 4° C. to remove cell debris. The supernatants were analyzed via Western blotting and used immediately or stored at −70° C.
# Cell culture supernatants from transfected COS-7 cells were size fractionated using 4-12% Nu-PAGE™ (Invitrogen) and blotted onto nitrocellulose filters (Schleicher & Schuell). Western blots were blocked in 3% skimmed milk (MPBS) in PBS, and subsequently incubated with a polyclonal antibody that was raised against a FeIL-12 p40 peptide diluted 1:300 in MPBS. Blocking and antibody incubation were each performed for 1 h at room temperature. After extensive washing (3 times 5 min), blots were incubated with alkaline peroxidase (AP)-conjugated goat anti-rabbit IgG antibodies (Sanbio) diluted 1:1000 in MPBS for 1 h at room temperature. After washing (3 times 5 min), bound AP-labeled secondary antibodies were visualized via staining. […]
protein,measurement,value
"chicken IL-12 p40 subunit (ChIL-12 p40) (ligand, also called chicken p40; clone pND89) QWKLRENVYVIESEWNDETPAKKVKLTCDTSDEALPVYWKKGTELKGTGKTLTTEVKEFPDAGNYTCLSAKTHEIISYSFFLITKVDSNGQMIRSILKSYKEPSKTFLKCEAKNYSGIFTCSWMTENESPSVKFTIRSLKGSQGDVTCSSPVARTDKSVTEYTAQCQKENYCPFAEEHQPTEMFLEVIDEVEYENYTSSFFIRDIIKPDPPQCQYASTNGTVTWTYPKTWSTPKSYFPLTFRVKVESTKKYKSKVYDADEQSIQIPKTGPKDKISVQARDRYYNSSWSEWSTLCR",binding result,binds
